Source: paper PMC6635489

How the values were obtained:
Conditions in all cases: glycan lost; control: wild type GluK3
[1] = whole-cell dose-response, 30 µM-30 mM glutamate
[2] = whole-cell patch clamp, 30 mM glutamate, HEK293
[3] = surface biotinylation, anti-GluR6/7 blot, HEK293
[4] = two-pulse 30 mM glutamate protocol, whole-cell patch clamp

B1: GluK3: T249A/T397A (protein)
parent chain: MTAPWRRLRSLVWEYWAGFLVCAFWIPDSRGMPHVIRIGGIFEYADGPNAQVMNAEEHAFRFSANIINRNRTLLPNTTLTYDIQRIHFHDSFEATKKACDQLALGVVAIFGPSQGSCTNAVQSICNALEVPHIQLRWKHHPLDNKDTFYVNLYPDYASLSHAILDLVQSLKWRSATVVYDDSTGLIRLQELIMAPSRYNIRLKIRQLPIDSDDSRPLLKEMKRGREFRIIFDCSHTMAAQILKQAMAMGMMTEYYHFIFTTLDLYALDLEPYRYSGVNLTGFRILNVDNAHVSAIVEKWSMERLQAAPRAESGLLDGVMMTDAALLYDAVHIVSVCYQRASQMTVNSLQCHRHKPWRFGGRFMNFIKEAQWEGLTGRIVFNKTSGLRTDFDLDIISLKEDGLEKVGVWSPADGLNITEVAKGRGPNVTDSLTNRSLIVTTLLEEPFVMFRKSDRTLYGNDRFEGYCIDLLKELAHILGFSYEIRLVEDGKYGAQDDKGQWNGMVKELIDHKADLAVAPLTITHVREKAIDFSKPFMTLGVSILYRKPNGTNPSVFSFLNPLSPDIWMYVLLAYLGVSCVLFVIARFSPYEWYDAHPCNPGSEVVENNFTLLNSFWFGMGSLMQQGSELMPKALSTRIIGGIWWFFTLIIISSYTANLAAFLTVERMESPIDSADDLAKQTKIEYGAVKDGATMTFFKKSKISTFEKMWAFMSSKPSALVKNNEEGIQRTLTADYALLMESTTIEYITQRNCNLTQIGGLIDSKGYGIGTPMGSPYRDKITIAILQLQEEDKLHIMKEKWWRGSGCPEEENKEASALGIQKIGGIFIVLAAGLVLSVLVAVGEFIYKLRKTAEREQRSFCSTVADEIRFSLTCQRRLKHKPQPPMMVKTDAVINMHTFNDRRLPGKDSMSCSTSLAPVFP
- other: glutamate EC50 of channel current, EC50 [1]: decreases, 6.5 vs 9.5
- other: desensitization time constant, other: mean weighted tau_des [2]: no change, 4.3 ± 0.2 vs 3.8 ± 0.5
- localisation_or_trafficking [3]: no change

B2: GluK3: T249A (protein)
parent chain: MTAPWRRLRSLVWEYWAGFLVCAFWIPDSRGMPHVIRIGGIFEYADGPNAQVMNAEEHAFRFSANIINRNRTLLPNTTLTYDIQRIHFHDSFEATKKACDQLALGVVAIFGPSQGSCTNAVQSICNALEVPHIQLRWKHHPLDNKDTFYVNLYPDYASLSHAILDLVQSLKWRSATVVYDDSTGLIRLQELIMAPSRYNIRLKIRQLPIDSDDSRPLLKEMKRGREFRIIFDCSHTMAAQILKQAMAMGMMTEYYHFIFTTLDLYALDLEPYRYSGVNLTGFRILNVDNAHVSAIVEKWSMERLQAAPRAESGLLDGVMMTDAALLYDAVHIVSVCYQRASQMTVNSLQCHRHKPWRFGGRFMNFIKEAQWEGLTGRIVFNKTSGLRTDFDLDIISLKEDGLEKVGVWSPADGLNITEVAKGRGPNVTDSLTNRSLIVTTLLEEPFVMFRKSDRTLYGNDRFEGYCIDLLKELAHILGFSYEIRLVEDGKYGAQDDKGQWNGMVKELIDHKADLAVAPLTITHVREKAIDFSKPFMTLGVSILYRKPNGTNPSVFSFLNPLSPDIWMYVLLAYLGVSCVLFVIARFSPYEWYDAHPCNPGSEVVENNFTLLNSFWFGMGSLMQQGSELMPKALSTRIIGGIWWFFTLIIISSYTANLAAFLTVERMESPIDSADDLAKQTKIEYGAVKDGATMTFFKKSKISTFEKMWAFMSSKPSALVKNNEEGIQRTLTADYALLMESTTIEYITQRNCNLTQIGGLIDSKGYGIGTPMGSPYRDKITIAILQLQEEDKLHIMKEKWWRGSGCPEEENKEASALGIQKIGGIFIVLAAGLVLSVLVAVGEFIYKLRKTAEREQRSFCSTVADEIRFSLTCQRRLKHKPQPPMMVKTDAVINMHTFNDRRLPGKDSMSCSTSLAPVFP
- other: glutamate EC50 of channel current, EC50 [1]: decreases, 7.2 vs 9.5
- other: desensitization time constant, other: mean weighted tau_des [2]: no change, 3.7 ± 0.4 vs 3.8 ± 0.5
- localisation_or_trafficking [3]: no change

B3: GluK3: T397A/S404A (protein)
parent chain: MTAPWRRLRSLVWEYWAGFLVCAFWIPDSRGMPHVIRIGGIFEYADGPNAQVMNAEEHAFRFSANIINRNRTLLPNTTLTYDIQRIHFHDSFEATKKACDQLALGVVAIFGPSQGSCTNAVQSICNALEVPHIQLRWKHHPLDNKDTFYVNLYPDYASLSHAILDLVQSLKWRSATVVYDDSTGLIRLQELIMAPSRYNIRLKIRQLPIDSDDSRPLLKEMKRGREFRIIFDCSHTMAAQILKQAMAMGMMTEYYHFIFTTLDLYALDLEPYRYSGVNLTGFRILNVDNAHVSAIVEKWSMERLQAAPRAESGLLDGVMMTDAALLYDAVHIVSVCYQRASQMTVNSLQCHRHKPWRFGGRFMNFIKEAQWEGLTGRIVFNKTSGLRTDFDLDIISLKEDGLEKVGVWSPADGLNITEVAKGRGPNVTDSLTNRSLIVTTLLEEPFVMFRKSDRTLYGNDRFEGYCIDLLKELAHILGFSYEIRLVEDGKYGAQDDKGQWNGMVKELIDHKADLAVAPLTITHVREKAIDFSKPFMTLGVSILYRKPNGTNPSVFSFLNPLSPDIWMYVLLAYLGVSCVLFVIARFSPYEWYDAHPCNPGSEVVENNFTLLNSFWFGMGSLMQQGSELMPKALSTRIIGGIWWFFTLIIISSYTANLAAFLTVERMESPIDSADDLAKQTKIEYGAVKDGATMTFFKKSKISTFEKMWAFMSSKPSALVKNNEEGIQRTLTADYALLMESTTIEYITQRNCNLTQIGGLIDSKGYGIGTPMGSPYRDKITIAILQLQEEDKLHIMKEKWWRGSGCPEEENKEASALGIQKIGGIFIVLAAGLVLSVLVAVGEFIYKLRKTAEREQRSFCSTVADEIRFSLTCQRRLKHKPQPPMMVKTDAVINMHTFNDRRLPGKDSMSCSTSLAPVFP
- other: glutamate EC50 of channel current, EC50 [1]: decreases, 5.7 vs 9.5
- other: desensitization time constant, other: mean weighted tau_des [2]: no change, 4.0 ± 0.4 vs 3.8 ± 0.5
- localisation_or_trafficking [3]: no change
- other: time constant of recovery from desensitization, other: tau_rec [4]: decreases, 0.5 vs 0.9

B4: GluK3: T249A/S404A (protein)
parent chain: MTAPWRRLRSLVWEYWAGFLVCAFWIPDSRGMPHVIRIGGIFEYADGPNAQVMNAEEHAFRFSANIINRNRTLLPNTTLTYDIQRIHFHDSFEATKKACDQLALGVVAIFGPSQGSCTNAVQSICNALEVPHIQLRWKHHPLDNKDTFYVNLYPDYASLSHAILDLVQSLKWRSATVVYDDSTGLIRLQELIMAPSRYNIRLKIRQLPIDSDDSRPLLKEMKRGREFRIIFDCSHTMAAQILKQAMAMGMMTEYYHFIFTTLDLYALDLEPYRYSGVNLTGFRILNVDNAHVSAIVEKWSMERLQAAPRAESGLLDGVMMTDAALLYDAVHIVSVCYQRASQMTVNSLQCHRHKPWRFGGRFMNFIKEAQWEGLTGRIVFNKTSGLRTDFDLDIISLKEDGLEKVGVWSPADGLNITEVAKGRGPNVTDSLTNRSLIVTTLLEEPFVMFRKSDRTLYGNDRFEGYCIDLLKELAHILGFSYEIRLVEDGKYGAQDDKGQWNGMVKELIDHKADLAVAPLTITHVREKAIDFSKPFMTLGVSILYRKPNGTNPSVFSFLNPLSPDIWMYVLLAYLGVSCVLFVIARFSPYEWYDAHPCNPGSEVVENNFTLLNSFWFGMGSLMQQGSELMPKALSTRIIGGIWWFFTLIIISSYTANLAAFLTVERMESPIDSADDLAKQTKIEYGAVKDGATMTFFKKSKISTFEKMWAFMSSKPSALVKNNEEGIQRTLTADYALLMESTTIEYITQRNCNLTQIGGLIDSKGYGIGTPMGSPYRDKITIAILQLQEEDKLHIMKEKWWRGSGCPEEENKEASALGIQKIGGIFIVLAAGLVLSVLVAVGEFIYKLRKTAEREQRSFCSTVADEIRFSLTCQRRLKHKPQPPMMVKTDAVINMHTFNDRRLPGKDSMSCSTSLAPVFP
- other: glutamate EC50 of channel current, EC50 [1]: decreases, 5.3 vs 9.5
- other: desensitization time constant, other: mean weighted tau_des [2]: no change, 4.1 ± 0.2 vs 3.8 ± 0.5
- localisation_or_trafficking [3]: no change
- other: time constant of recovery from desensitization, other: tau_rec [4]: decreases, 0.3 vs 0.9

B5: GluK3: T397A (protein)
parent chain: MTAPWRRLRSLVWEYWAGFLVCAFWIPDSRGMPHVIRIGGIFEYADGPNAQVMNAEEHAFRFSANIINRNRTLLPNTTLTYDIQRIHFHDSFEATKKACDQLALGVVAIFGPSQGSCTNAVQSICNALEVPHIQLRWKHHPLDNKDTFYVNLYPDYASLSHAILDLVQSLKWRSATVVYDDSTGLIRLQELIMAPSRYNIRLKIRQLPIDSDDSRPLLKEMKRGREFRIIFDCSHTMAAQILKQAMAMGMMTEYYHFIFTTLDLYALDLEPYRYSGVNLTGFRILNVDNAHVSAIVEKWSMERLQAAPRAESGLLDGVMMTDAALLYDAVHIVSVCYQRASQMTVNSLQCHRHKPWRFGGRFMNFIKEAQWEGLTGRIVFNKTSGLRTDFDLDIISLKEDGLEKVGVWSPADGLNITEVAKGRGPNVTDSLTNRSLIVTTLLEEPFVMFRKSDRTLYGNDRFEGYCIDLLKELAHILGFSYEIRLVEDGKYGAQDDKGQWNGMVKELIDHKADLAVAPLTITHVREKAIDFSKPFMTLGVSILYRKPNGTNPSVFSFLNPLSPDIWMYVLLAYLGVSCVLFVIARFSPYEWYDAHPCNPGSEVVENNFTLLNSFWFGMGSLMQQGSELMPKALSTRIIGGIWWFFTLIIISSYTANLAAFLTVERMESPIDSADDLAKQTKIEYGAVKDGATMTFFKKSKISTFEKMWAFMSSKPSALVKNNEEGIQRTLTADYALLMESTTIEYITQRNCNLTQIGGLIDSKGYGIGTPMGSPYRDKITIAILQLQEEDKLHIMKEKWWRGSGCPEEENKEASALGIQKIGGIFIVLAAGLVLSVLVAVGEFIYKLRKTAEREQRSFCSTVADEIRFSLTCQRRLKHKPQPPMMVKTDAVINMHTFNDRRLPGKDSMSCSTSLAPVFP
- other: glutamate EC50 of channel current, EC50 [1]: decreases, 3.7 vs 9.5
- other: desensitization time constant, other: mean weighted tau_des [2]: no change, 3.2 ± 0.2 vs 3.8 ± 0.5
- localisation_or_trafficking [3]: no change
- other: time constant of recovery from desensitization, other: tau_rec [4]: no change, 0.8 vs 0.9

B6: GluK3: N721A glycan knockout (Methods: T723A) (protein)
parent chain: MTAPWRRLRSLVWEYWAGFLVCAFWIPDSRGMPHVIRIGGIFEYADGPNAQVMNAEEHAFRFSANIINRNRTLLPNTTLTYDIQRIHFHDSFEATKKACDQLALGVVAIFGPSQGSCTNAVQSICNALEVPHIQLRWKHHPLDNKDTFYVNLYPDYASLSHAILDLVQSLKWRSATVVYDDSTGLIRLQELIMAPSRYNIRLKIRQLPIDSDDSRPLLKEMKRGREFRIIFDCSHTMAAQILKQAMAMGMMTEYYHFIFTTLDLYALDLEPYRYSGVNLTGFRILNVDNAHVSAIVEKWSMERLQAAPRAESGLLDGVMMTDAALLYDAVHIVSVCYQRASQMTVNSLQCHRHKPWRFGGRFMNFIKEAQWEGLTGRIVFNKTSGLRTDFDLDIISLKEDGLEKVGVWSPADGLNITEVAKGRGPNVTDSLTNRSLIVTTLLEEPFVMFRKSDRTLYGNDRFEGYCIDLLKELAHILGFSYEIRLVEDGKYGAQDDKGQWNGMVKELIDHKADLAVAPLTITHVREKAIDFSKPFMTLGVSILYRKPNGTNPSVFSFLNPLSPDIWMYVLLAYLGVSCVLFVIARFSPYEWYDAHPCNPGSEVVENNFTLLNSFWFGMGSLMQQGSELMPKALSTRIIGGIWWFFTLIIISSYTANLAAFLTVERMESPIDSADDLAKQTKIEYGAVKDGATMTFFKKSKISTFEKMWAFMSSKPSALVKNNEEGIQRTLTADYALLMESTTIEYITQRNCNLTQIGGLIDSKGYGIGTPMGSPYRDKITIAILQLQEEDKLHIMKEKWWRGSGCPEEENKEASALGIQKIGGIFIVLAAGLVLSVLVAVGEFIYKLRKTAEREQRSFCSTVADEIRFSLTCQRRLKHKPQPPMMVKTDAVINMHTFNDRRLPGKDSMSCSTSLAPVFP
- localisation_or_trafficking [3]: abolishes
